According to patent US20230340070A1:

How the values were obtained:
[1] = biological target: anti-CD20 antibody (18B12, Absolute antibody); experiment: cell-based or functional assay
[2] = biological target: anti-TRP-1 antibody (TA99, BioXcell); experiment: cell-based or functional assay

Substance | A20 B-cell lymphoma cell death by Annexin-V staining in flow cytometry after co-culture with infected CD8+ T cells and anti-CD20 antibody [1] [%] | B16-H2B-tdTomato target cell count after 48 hours co-culture with infected CD8+ T cells and anti-TRP-1 antibody (FIG. 8C; sham: around 750 B16 cells) [2] [B16 cells] | killing of B16-H2B-tdTomato target cells by infected CD4+ and CD8+ T cells with anti-TRP-1 antibody, incuCyte target cell numbers after 48 hours; effector : target ratio needed (effector : target ratio (x to 1)) [2] | killing of B16-H2B-tdTomato target cells by infected T cells with anti-TRP-1 antibody, incuCyte; effector : target ratio at which killing was induced (effector : target ratio (x:1)) [2]
Alpha-gamma-2A-gamma (extracellular and transmembrane domains of FcγRI fused to the intracellular domain of FcRγ, T2A skipping peptide and FcRγ) (receptor) | 20 | 460 |  | 
Alpha-2A-gamma (extracellular, transmembrane and intracellular domains of FcγRI, T2A skipping peptide and FcRγ) (receptor) |  | 575 | > 8 | 
Alpha-gamma-2A-gamma (extracellular and transmembrane domains of FcγRI fused to the intracellular domain of FcRγ, T2A skipping peptide and FcRγ) |  |  |  | 2
